Each block holds one molecule with its values, some of them ahead of it.
Legend:
[1] = target: His-TEV LRRC4B (limits not told for Fig. 1G) (human); assay: ELISA
[2] = target: 6xHis-LRRC4B(453–576) (human) (UniProt Q9NT99); assay: SPR
[3] = target: His-TEV LRRC4B(36-576) (human) (UniProt Q9NT99); assay: ELISA
[4] = target: LRRC4B(453-576)-hFc (human) (UniProt Q9NT99); assay: ELISA
[5] = target: LRRC4B(484-576)-hFc (human) (UniProt Q9NT99); assay: ELISA
[6] = target: T1, PTPRF ectodomain (30-1263)-hFc (human, UniProt P10586-1 30-1263); assay: ELISA
T1 sequence (looked up): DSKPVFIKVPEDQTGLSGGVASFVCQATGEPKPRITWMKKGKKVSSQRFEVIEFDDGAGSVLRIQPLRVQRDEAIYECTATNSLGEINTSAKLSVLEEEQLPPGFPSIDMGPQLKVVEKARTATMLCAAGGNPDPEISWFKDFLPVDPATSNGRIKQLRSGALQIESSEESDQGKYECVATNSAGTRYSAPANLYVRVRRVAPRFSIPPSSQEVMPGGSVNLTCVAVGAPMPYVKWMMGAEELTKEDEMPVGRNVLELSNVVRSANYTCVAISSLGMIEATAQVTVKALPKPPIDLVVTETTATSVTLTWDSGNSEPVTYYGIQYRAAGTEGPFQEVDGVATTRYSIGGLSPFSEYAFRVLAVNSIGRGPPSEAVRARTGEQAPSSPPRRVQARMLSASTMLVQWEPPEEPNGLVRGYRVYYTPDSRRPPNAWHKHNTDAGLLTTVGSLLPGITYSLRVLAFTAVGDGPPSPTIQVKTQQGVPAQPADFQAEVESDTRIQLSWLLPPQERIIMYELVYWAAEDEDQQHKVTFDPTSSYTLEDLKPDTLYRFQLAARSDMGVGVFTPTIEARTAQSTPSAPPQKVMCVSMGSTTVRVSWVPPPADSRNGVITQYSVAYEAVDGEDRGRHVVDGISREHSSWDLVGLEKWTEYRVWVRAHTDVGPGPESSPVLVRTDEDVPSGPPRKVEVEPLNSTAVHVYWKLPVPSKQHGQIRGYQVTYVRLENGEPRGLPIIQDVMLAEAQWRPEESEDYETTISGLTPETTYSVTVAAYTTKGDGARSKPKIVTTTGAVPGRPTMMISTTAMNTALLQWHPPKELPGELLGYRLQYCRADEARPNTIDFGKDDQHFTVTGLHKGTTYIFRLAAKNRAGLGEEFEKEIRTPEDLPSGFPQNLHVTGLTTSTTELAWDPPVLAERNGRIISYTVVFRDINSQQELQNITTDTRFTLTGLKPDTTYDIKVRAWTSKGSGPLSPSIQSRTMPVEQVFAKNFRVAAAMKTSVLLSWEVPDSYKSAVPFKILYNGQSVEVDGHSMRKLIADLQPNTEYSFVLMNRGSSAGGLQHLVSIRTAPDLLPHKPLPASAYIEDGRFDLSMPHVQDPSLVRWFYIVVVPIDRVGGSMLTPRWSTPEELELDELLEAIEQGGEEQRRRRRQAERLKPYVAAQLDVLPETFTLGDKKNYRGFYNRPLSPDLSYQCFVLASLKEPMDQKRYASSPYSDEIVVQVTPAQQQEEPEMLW

[7] = target: FAM19A5 (wild type, recombinant) (human); assay: ELISA

B1: His-TEV LRRC4B(36-576) (domain or fragment, human, UniProt Q9NT99 36-576, looked up)
chain: AGGGGVAVTSAAGGGSPPATSCPVACSCSNQASRVICTRRDLAEVPASIPVNTRYLNLQENGIQVIRTDTFKHLRHLEILQLSKNLVRKIEVGAFNGLPSLNTLELFDNRLTTVPTQAFEYLSKLRELWLRNNPIESIPSYAFNRVPSLRRLDLGELKRLEYISEAAFEGLVNLRYLNLGMCNLKDIPNLTALVRLEELELSGNRLDLIRPGSFQGLTSLRKLWLMHAQVATIERNAFDDLKSLEELNLSHNNLMSLPHDLFTPLHRLERVHLNHNPWHCNCDVLWLSWWLKETVPSNTTCCARCHAPAGLKGRYIGELDQSHFTCYAPVIVEPPTDLNVTEGMAAELKCRTGTSMTSVNWLTPNGTLMTHGSYRVRISVLHDGTLNFTNVTVQDTGQYTCMVTNSAGNTTASATLNVSAVDPVAAGGTGSGGGGPGGSGGVGGGSGGYTYFTTVTVETLETQPGEEALQPRGTEKEPPGPTTDGVWGGGRPGDAAGPASSSTTAPAPRSSRPTEKAFTVPITDVTENALKDLDDVMKTTK
binding result [6]: binds

B2: LRRC4B(453-576)-hFc (Fc fusion)
chain: VSAVDPVAAGGTGSGGGGPGGSGGVGGGSGGYTYFTTVTVETLETQPGEEALQPRGTEKEPPGPTTDGVWGGGRPGDAAGPASSSTTAPAPRSSRPTEKAFTVPITDVTENALKDLDDVMKTTK
IC50 [7]: 8.1 nM

More lines, now with the values ahead:

EC50 [1]: 0.595 nM
Molecule: MT FAM19A5(R58A, R59A) (ligand)

Kd [2]: 0.0321 nM
koff [2]: 0.000157 s⁻¹
kon [2]: 4.89e+06 M⁻¹ s⁻¹
EC50 [1]: 0.41 nM
IC50 [3]: 281 nM
EC50 [4]: 0.0685 nM
EC50 [5]: 0.112 nM
Molecule: FAM19A5 (wild type, recombinant) (ligand)

Reference: doi:10.1101/2023.11.22.568357 (bioRxiv, 2023)
